What was measured:
Assay in all cases: cell-based or functional assay
[1] = target: HIV-1 Env of isolate DU422 (HIV-1)
[2] = target: HIV-1 Env of isolate AC10 (HIV-1)
[3] = target: HIV-1 ADA Env (pseudovirus) (HIV-1 ADA)
[4] = target: HIV-1 Env of isolate ZM249 (HIV-1)
[5] = target: HIV-1 Env of isolate THRO.18 (HIV-1)
[6] = target: HIV-1 92RW020 Env (pseudovirus) (HIV-1 92RW020)
[7] = target: HIV-1 Env of isolate PVO.4 (HIV-1)
[8] = target: MuLV envelope protein (control pseudovirus) (MuLV)
[9] = target: HIV-1 Env of isolate ZM214 (HIV-1)
[10] = target: HIV-1 Env of isolate CAP45 (HIV-1)
[11] = target: HIV-1 JR-CSF Env, wild type (pseudovirus) (HIV-1 JR-CSF) (UniProt P20871)
[12] = target: HIV-1 JR-CSF Env Y318A (pseudovirus) (HIV-1 JR-CSF) (UniProt P20871)
[13] = target: HIV-1 Env of isolate Du172 (HIV-1)
[14] = target: HIV-1 Env of isolate REJ04541 (HIV-1)
[15] = target: HIV-1 Env of isolate CAAN (HIV-1)
[16] = target: HIV-1 Env of isolate DU156 (HIV-1)
[17] = target: HIV-1 JR-CSF Env I309A (pseudovirus) (HIV-1 JR-CSF) (UniProt P20871)
[18] = target: HIV-1 JR-FL Env E168K (pseudovirus) (HIV-1 JR-FL)
[19] = target: HIV-1 Env of isolate TR0.11 (HIV-1)
[20] = target: HIV-1 Env of isolate ZM233 (HIV-1)
[21] = target: HIV-1 MGRM-D-018 envelope glycoprotein (Env), clade D (HIV-1)
[22] = target: HIV-1 APV17 envelope glycoprotein (Env), clade B (HIV-1)
[23] = target: HIV-1 CMU02 envelope glycoprotein (Env), clade AE (HIV-1)
[24] = target: HIV-1 MGRM-C-026 envelope glycoprotein (Env), clade C (HIV-1)
[25] = target: HIV-1 92RW020 envelope glycoprotein (Env), clade A (HIV-1)
[26] = target: HIV-1 94UG103 envelope glycoprotein (Env), clade A (HIV-1)
[27] = target: HIV-1 92UG005 envelope glycoprotein (Env), clade D (HIV-1)
[28] = target: HIV-1 JRCSF envelope glycoprotein (Env), clade B (HIV-1) (UniProt P20871)
[29] = target: HIV-1 MGRM-C-028 envelope glycoprotein (Env), clade C (HIV-1)
[30] = target: HIV-1 APV13 envelope glycoprotein (Env), clade B (HIV-1)
[31] = target: aMLV envelope protein (negative control virus)
[32] = target: HIV-1 MGRM-D-001 envelope glycoprotein (Env), clade D (HIV-1)
[33] = target: HIV-1 92BR020 envelope glycoprotein (Env), clade B (HIV-1)
[34] = target: HIV-1 APV6 envelope glycoprotein (Env), clade B (HIV-1)
[35] = target: HIV-1 92UG024 envelope glycoprotein (Env), clade D (HIV-1)
[36] = target: HIV-1 92TH021 envelope glycoprotein (Env), clade AE (HIV-1)
[37] = target: HIV-1 93IN905 envelope glycoprotein (Env), clade C (HIV-1)
[38] = target: HIV-1 NL43 envelope glycoprotein (Env), clade B (HIV-1)
[39] = target: HIV-1 MGRM-C-027 envelope glycoprotein (Env), clade C (HIV-1)
[40] = target: HIV-1 MGRM-AG-005 envelope glycoprotein (Env), clade AG (HIV-1)
[41] = target: HIV-1 MGRM-A-010 envelope glycoprotein (Env), clade A (HIV-1)
[42] = target: HIV-1 JRFL envelope glycoprotein (Env), clade B (HIV-1)
[43] = target: HIV-1 93UG077 envelope glycoprotein (Env), clade A (HIV-1)

B1: 1489_I13 (PG16) (TCN-120) (antibody, V domains shown)
VH: QEQLLESGGGVVQPGGSLRLSCLASGFTFHKYGMHWVRQAPGKGLEWVALISDDGMRKYHSNSMWGRVTISRDNSKNTLYLQFSSLKVEDTAMFFCAREAGGPIWHDDVKYYDFNDGYYNYHYMDVWGKGTTVTVSS
VL: QSALTQPASVSGSPGQTITISCNGTSSDVGGFDSVSWYQQSPGKAPKVMVFDVSHRPSGISNRFSGSKSGNTASLTISGLHIEDEGDYFCSSLTDRSHRIFGGGTKVTVLG
In the case of B1, the IC50, pseudovirus neutralization (TZM-bl) [1] is reported as 1.87 µg/mL, the IC50, pseudovirus neutralization (TZM-bl) [2] is reported as less than 0.01 µg/mL and the IC50 (ug/ml), neutralization [3] is reported as 0.008 µg/mL. For the same binder, the IC50, pseudovirus neutralization (TZM-bl) [4] was less than 0.01 µg/mL, the IC50, pseudovirus neutralization (TZM-bl) [5] was 7.41 µg/mL and the IC50 (ug/ml), neutralization [6] was 0.03 µg/mL. It also gave an IC50, pseudovirus neutralization (TZM-bl) [7] of 20.6 µg/mL, an IC50, pseudovirus neutralization (TZM-bl), control virus [8] greater than 25 µg/mL and an IC50, pseudovirus neutralization (TZM-bl) [9] greater than 25 µg/mL. For the same binder, the IC50, pseudovirus neutralization (TZM-bl) [10] was less than 0.01 µg/mL, the IC50 (ug/ml), neutralization [11] was 0.002 µg/mL and the IC50 (ug/ml), neutralization [12] was greater than 1 µg/mL. For the same binder, the IC50, pseudovirus neutralization (TZM-bl) [13] was less than 0.01 µg/mL, the IC50, pseudovirus neutralization (TZM-bl) [14] was 0.34 µg/mL and the IC50, pseudovirus neutralization (TZM-bl) [15] was 24.9 µg/mL. It also gave an IC50, pseudovirus neutralization (TZM-bl) [16] of less than 0.01 µg/mL, an IC50 (ug/ml), neutralization [17] greater than 1 µg/mL and an IC50 (ug/ml), neutralization [18] of 0.005 µg/mL. The IC50, pseudovirus neutralization (TZM-bl) [19] was 10.9 µg/mL and the IC50, pseudovirus neutralization (TZM-bl) [20] was less than 0.01 µg/mL.

B2: PGT-135 monoclonal antibody (clones 5343_B08 and 5344_E16) (antibody, V domains shown)
VH: QLQMQESGPGLVKPSETLSLSCTVSGDSIRGGEWGDKDYHWGWVRHSAGKGLEWIGSIHWRGTTHYKESLRRRVSMSIDTSRNWFSLRLASVTAADTAVYFCARHRHHDVFMLVPIAGWFDVWGPGVQVTVSS
VL: EIVMTQSPDTLSVSPGETVTLSCRASQNINKNLAWYQYKPGQSPRLVIFETYSKIAAFPARFVASGSGTEFTLTINNMQSEDVAVYYCQQYEEWPRTFGQGTKVDIK
B2 showed an IC50 (neutralization of pseudovirus) [21] of 0.0433 µg/mL, an IC80 (neutralization of pseudovirus) [21] of 0.2 µg/mL and an IC90 (neutralization of pseudovirus) [21] greater than 10 µg/mL. The IC95 (neutralization of pseudovirus) [21] was greater than 10 µg/mL, the IC50 (neutralization of pseudovirus) [22] was greater than 10 µg/mL and the IC80 (neutralization of pseudovirus) [22] was greater than 10 µg/mL. The IC90 (neutralization of pseudovirus) [22] was greater than 10 µg/mL, the IC95 (neutralization of pseudovirus) [22] was greater than 10 µg/mL and the IC50 (neutralization of pseudovirus) [23] was greater than 10 µg/mL. For the same binder, the IC80 (neutralization of pseudovirus) [23] was greater than 10 µg/mL, the IC90 (neutralization of pseudovirus) [23] was greater than 10 µg/mL and the IC95 (neutralization of pseudovirus) [23] was greater than 10 µg/mL. The IC50 (neutralization of pseudovirus) [24] was 0.0123 µg/mL, the IC80 (neutralization of pseudovirus) [24] was 0.0562 µg/mL and the IC90 (neutralization of pseudovirus) [24] was 0.139 µg/mL. For the same binder, the IC95 (neutralization of pseudovirus) [24] was 0.331 µg/mL, the IC50 (neutralization of pseudovirus) [25] was 0.157 µg/mL and the IC80 (neutralization of pseudovirus) [25] was 3.46 µg/mL. For the same binder, the IC90 (neutralization of pseudovirus) [25] was greater than 10 µg/mL, the IC95 (neutralization of pseudovirus) [25] was greater than 10 µg/mL and the IC50 (neutralization of pseudovirus) [26] was greater than 10 µg/mL. The IC80 (neutralization of pseudovirus) [26] was greater than 10 µg/mL, the IC90 (neutralization of pseudovirus) [26] was greater than 10 µg/mL and the IC95 (neutralization of pseudovirus) [26] was greater than 10 µg/mL. It also gave an IC50 (neutralization of pseudovirus) [27] greater than 10 µg/mL, an IC80 (neutralization of pseudovirus) [27] greater than 10 µg/mL and an IC90 (neutralization of pseudovirus) [27] greater than 10 µg/mL. It also gave an IC95 (neutralization of pseudovirus) [27] greater than 10 µg/mL, an IC50 (neutralization of pseudovirus) [28] of 0.113 µg/mL and an IC80 (neutralization of pseudovirus) [28] of 0.503 µg/mL. For the same binder, the IC90 (neutralization of pseudovirus) [28] was 1.47 µg/mL, the IC95 (neutralization of pseudovirus) [28] was 8.3 µg/mL and the IC50 (neutralization of pseudovirus) [29] was 2.16 µg/mL. The IC80 (neutralization of pseudovirus) [29] was greater than 10 µg/mL, the IC90 (neutralization of pseudovirus) [29] was greater than 10 µg/mL and the IC95 (neutralization of pseudovirus) [29] was greater than 10 µg/mL. The IC50 (neutralization of pseudovirus) [30] was 0.545 µg/mL, the IC80 (neutralization of pseudovirus) [30] was greater than 10 µg/mL and the IC90 (neutralization of pseudovirus) [30] was greater than 10 µg/mL. The IC95 (neutralization of pseudovirus) [30] was greater than 10 µg/mL, the IC50 (neutralization of pseudovirus) [31] was greater than 10 µg/mL and the IC80 (neutralization of pseudovirus) [31] was greater than 10 µg/mL. It also gave an IC90 (neutralization of pseudovirus) [31] greater than 10 µg/mL, an IC95 (neutralization of pseudovirus) [31] greater than 10 µg/mL and an IC50 (neutralization of pseudovirus) [32] greater than 10 µg/mL. The IC80 (neutralization of pseudovirus) [32] was greater than 10 µg/mL, the IC90 (neutralization of pseudovirus) [32] was greater than 10 µg/mL and the IC95 (neutralization of pseudovirus) [32] was greater than 10 µg/mL. For the same binder, the IC50 (neutralization of pseudovirus) [33] was 0.104 µg/mL, the IC80 (neutralization of pseudovirus) [33] was 0.253 µg/mL and the IC90 (neutralization of pseudovirus) [33] was 0.43 µg/mL. It also gave an IC95 (neutralization of pseudovirus) [33] of 0.72 µg/mL, an IC50 (neutralization of pseudovirus) [34] greater than 10 µg/mL and an IC80 (neutralization of pseudovirus) [34] greater than 10 µg/mL. For the same binder, the IC90 (neutralization of pseudovirus) [34] was greater than 10 µg/mL, the IC95 (neutralization of pseudovirus) [34] was greater than 10 µg/mL and the IC50 (neutralization of pseudovirus) [35] was 0.0139 µg/mL. It also gave an IC80 (neutralization of pseudovirus) [35] of 0.054 µg/mL, an IC90 (neutralization of pseudovirus) [35] of 0.122 µg/mL and an IC95 (neutralization of pseudovirus) [35] of 0.267 µg/mL. The IC50 (neutralization of pseudovirus) [36] was greater than 10 µg/mL, the IC80 (neutralization of pseudovirus) [36] was greater than 10 µg/mL and the IC90 (neutralization of pseudovirus) [36] was greater than 10 µg/mL. For the same binder, the IC95 (neutralization of pseudovirus) [36] was greater than 10 µg/mL, the IC50 (neutralization of pseudovirus) [37] was 0.0183 µg/mL and the IC80 (neutralization of pseudovirus) [37] was 0.0648 µg/mL. The IC90 (neutralization of pseudovirus) [37] was 0.136 µg/mL, the IC95 (neutralization of pseudovirus) [37] was 0.268 µg/mL and the IC50 (neutralization of pseudovirus) [38] was 6.79 µg/mL. For the same binder, the IC80 (neutralization of pseudovirus) [38] was greater than 10 µg/mL, the IC90 (neutralization of pseudovirus) [38] was greater than 10 µg/mL and the IC95 (neutralization of pseudovirus) [38] was greater than 10 µg/mL. It also gave an IC50 (neutralization of pseudovirus) [39] greater than 10 µg/mL, an IC80 (neutralization of pseudovirus) [39] greater than 10 µg/mL and an IC90 (neutralization of pseudovirus) [39] greater than 10 µg/mL. For the same binder, the IC95 (neutralization of pseudovirus) [39] was greater than 10 µg/mL, the IC50 (neutralization of pseudovirus) [40] was greater than 10 µg/mL and the IC80 (neutralization of pseudovirus) [40] was greater than 10 µg/mL. The IC90 (neutralization of pseudovirus) [40] was greater than 10 µg/mL, the IC95 (neutralization of pseudovirus) [40] was greater than 10 µg/mL and the IC50 (neutralization of pseudovirus) [41] was greater than 10 µg/mL. It also gave an IC80 (neutralization of pseudovirus) [41] greater than 10 µg/mL, an IC90 (neutralization of pseudovirus) [41] greater than 10 µg/mL and an IC95 (neutralization of pseudovirus) [41] greater than 10 µg/mL. The IC50 (neutralization of pseudovirus) [42] was greater than 10 µg/mL, the IC80 (neutralization of pseudovirus) [42] was greater than 10 µg/mL and the IC90 (neutralization of pseudovirus) [42] was greater than 10 µg/mL. The IC95 (neutralization of pseudovirus) [42] was greater than 10 µg/mL, the IC50 (neutralization of pseudovirus) [43] was greater than 10 µg/mL and the IC80 (neutralization of pseudovirus) [43] was greater than 10 µg/mL. For the same binder, the IC90 (neutralization of pseudovirus) [43] was greater than 10 µg/mL and the IC95 (neutralization of pseudovirus) [43] was greater than 10 µg/mL.

From US20200024330A1
